Target: F-actin (pre-assembled, AlexaFluor-labeled) (rabbit, UniProt P68135 1-377, AlexaFluor-labeled actin added to the polymerisation)
Assay: TIRF microscopy in vitro reconstitution

- binding result: binds
B1: His-GFP-Maspin-StrepII (natural protein)
chain: MDALQLANSAFAVDLFKQLCEKEPLGNVLFSPICLSTSLSLAQVGAKGDTANEIGQVLHFENVKDVPFGFQTVTSDVNKLSSFYSLKLIKRLYVDKSLNLSTEFISSTKRPYAKELETVDFKDKLEETKGQINNSIKDLTDGHFENILADNSVNDQTKILVVNAAYFVGKWMKKFSESETKECPFRVNKTDTKPVQMMNMEATFCMGNIDSINCKIIELPFQNKHLSMFILLPKDVEDESTGLEKIEKQLNSESLSQWTNPSTMANAKVKLSIPKFKVEKMIDPKACLENLGLKHIFSEDTSDFSGMSETKGVALSNVIHKVCLEITEDGGDSIEVPGARILQHKDELNADHPFIYIIRHNKTRNIIFFGKFCSP
